This is an account of results in PMC11341838 (Nature Communications, 2024).

This assay concerns the target T1, Pf3D7 recombinant AMA1, full ectodomain (domain I, II and III) (P. falciparum (strain 3D7)).
T1 chain: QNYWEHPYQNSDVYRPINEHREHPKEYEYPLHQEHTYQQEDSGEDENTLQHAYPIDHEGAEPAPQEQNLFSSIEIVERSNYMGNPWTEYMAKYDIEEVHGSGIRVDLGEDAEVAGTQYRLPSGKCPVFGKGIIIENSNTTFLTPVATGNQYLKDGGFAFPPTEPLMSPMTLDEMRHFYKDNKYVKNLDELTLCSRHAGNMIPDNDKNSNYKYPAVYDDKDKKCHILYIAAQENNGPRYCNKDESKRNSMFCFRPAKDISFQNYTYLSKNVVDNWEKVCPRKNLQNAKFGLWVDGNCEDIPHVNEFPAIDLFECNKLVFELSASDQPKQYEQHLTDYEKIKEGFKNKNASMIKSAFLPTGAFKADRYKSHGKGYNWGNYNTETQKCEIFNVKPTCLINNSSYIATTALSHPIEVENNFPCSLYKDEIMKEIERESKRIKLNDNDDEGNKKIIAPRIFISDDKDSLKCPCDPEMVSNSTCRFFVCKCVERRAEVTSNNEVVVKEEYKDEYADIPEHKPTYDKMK
The assay can be described thus: ELISA. Background: ELISA stands for enzyme-linked immunosorbent assay.

B1: mAb 1F9 (antibody, V domains shown)
VH: EVQLQQSGAELLKPGASVKLSCIVSGFKIKDTSMHWVKQRPEQGLEWIGRIDPANDNSEYDPKFQGKATITADTSSNTAYLQLSSLTSEDTAVYYCTLSHFWGQGTTLTVSS
VL: SIVMTQTPKFLPVSAGDRVTIICKASQSVSNDVVWYQQKPGQSPKLLIYYASIRYTGVPDRFTGSGYGTDFTFTISTVQVEDLAVYFCQQGFSSPRTFGGGTKLEIN
In the case of B1, the binding result is given as “binds”.
